This note sets out measurements from publication PMC2852676 (Current Biology, 2010).

The target of the test is T1, Smc3 hinge domain fusion protein, wild type (Smc3H) (yeast, UniProt P47037 495-705).
T1 sequence: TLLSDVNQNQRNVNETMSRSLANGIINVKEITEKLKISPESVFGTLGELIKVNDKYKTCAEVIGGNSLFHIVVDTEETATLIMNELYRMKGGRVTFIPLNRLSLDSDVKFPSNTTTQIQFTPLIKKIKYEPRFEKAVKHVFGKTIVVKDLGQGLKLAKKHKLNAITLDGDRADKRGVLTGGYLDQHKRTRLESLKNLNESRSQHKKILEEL
Put plainly: SEC.

B1: Smc1 hinge domain fusion protein, wild type (Smc1H) (domain or fragment)
chain: SANQRETMKERKLRENIAMLKRFFPGVKGLVHDLCHPKKEKYGLAVSTILGKNFDSVIVENLTVAQECIAFLKKQRAGTASFIPLDTIETELPTLSLPDSQDYILSINAIDYEPEYEKAMQYVCGDSIICNTLNIAKDLKWKKGIRGKLVTIEGALIHKAGLMTGGISGDANNRWDKEE
Consider B1, for which the binding result was “binds”.
